Assay results as given in US20160145309A1.

Biological target: human APJ receptor (human) (UniProt P35414)
Experiment: cell-based or functional assay

Sequence of human APJ receptor (human) (P35414 whole entry): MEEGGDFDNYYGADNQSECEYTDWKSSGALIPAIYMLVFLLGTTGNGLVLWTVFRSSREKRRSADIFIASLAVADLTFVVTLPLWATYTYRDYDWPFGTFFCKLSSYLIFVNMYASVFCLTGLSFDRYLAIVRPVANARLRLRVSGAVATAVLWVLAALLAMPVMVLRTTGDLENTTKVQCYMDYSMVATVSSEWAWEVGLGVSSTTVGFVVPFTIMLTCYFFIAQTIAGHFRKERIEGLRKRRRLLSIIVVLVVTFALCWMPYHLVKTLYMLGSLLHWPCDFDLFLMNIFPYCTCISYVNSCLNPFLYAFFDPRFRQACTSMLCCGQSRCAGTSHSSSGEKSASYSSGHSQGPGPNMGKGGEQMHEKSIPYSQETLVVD

Substance	hAPJ Ca2+ Flux EC50 [nM]
Example 1: pE-R-P-R-C*-S-H-K-G-P-Nle-C*-F-OH (peptide)	0.74
Example 2: pE-R-P-R-hC*-S-H-K-G-P-(D-Nle)-C*-y-OH (peptide)	154
Example 3: pE-R-P-R-L-S-C*-K-G-P-Nle-C*-F-OH (peptide)	128
Example 4: pE-R-P-R-L-S-C*-K-G-P-Nle-(D-hC)*-F-OH (peptide)	406
Example 5: pE-R-P-R-L-S-c*-K-G-P-Nle-(D-hC)*-F-OH (peptide)	981
Example 6: pE-R-P-R-L-S-hC*-K-G-P-Nle-(D-hC)*-F-OH (peptide)	92.8
Example 7: pE-R-P-R-L-S-(D-hC)*-K-G-P-Nle-(D-hC)*-F-OH (peptide)	781
Example 8: pE-R-P-R-L-S-(D-hC)*-K-G-P-Nle-C*-F-OH (peptide)	613
Example 9: pE-R-P-R-L-S-(D-hC)*-K-G-P-Nle-hC*-F-OH (peptide)	1030
Example 10: pE-R-P-R-L-S-(D-hC)*-K-G-P-Nle-C*-OH (peptide)	976
Example 11: pE-R-P-R-L-S-C*-K-G-P-Nle-c*-F-OH (peptide)	113
Example 12: pE-R-P-R-L-S-C*-K-G-P-Nle-hC*-F-OH (peptide)	81.7
Example 13: pE-R-P-R-L-S-hC*-K-G-P-Nle-hC*-F-OH (peptide)	760
Example 14: pE-R-P-R-L-S-H-K-C*-P-Nle-C*-F-OH (peptide)	0.81
Example 15: pE-R-P-R-L-S-Aib-K-C*-P-Nle-C*-NH(Phenethyl) (peptide)	4
Example 16: pE-R-P-R-L-S-a-K-C*-P-Nle-C*-f-OH (peptide)	33.2
Example 17: pE-R-P-R-L-a-H-K-C*-P-Nle-C*-f-OH (peptide)	1.9
Example 18: Isonipecotoyl-R-P-R-L-a-H-K-C*-P-Nle-C*-f-OH (peptide)	2.3
Example 19: pE-R-P-R-L-a-Aib-K-C*-P-Nle-C*-f-OH (peptide)	72.3
Example 20: pE-R-P-R-L-S-Aib-K-C*-P-Nle-C*-f-OH (peptide)	6.1
Example 21: pE-R-P-R-L-s-H-K-C*-P-Nle-C*-f-OH (peptide)	9.7
